In article PMC3630089, “ATP-Dependent Chromatin Remodeling by Cockayne Syndrome Protein B and NAP1-Like Histone Chaperones Is Required for Efficient Transcription-Coupled DNA Repair” (PLoS Genetics, 2013):

Target: T1, CSBΔN1 (CSB lacking amino acids 245-365), purified from SF9 cells (human, UniProt Q03468 1-1493, removing amino acids 245–365)
T1 construct: CSB with the N1 region (amino acids 245-365) removed; probably Flag-tagged like the other SF9 CSB proteins; source: SF9 cells, purified
Test: pull-down; GST-NAP1L1 immobilized on glutathione beads, mixed with purified CSB or CSBΔN1; Western blot
Settings: both partners purified

T1 sequence (Q03468 other isoform, or with tags, fused parts or gaps with the stated changes): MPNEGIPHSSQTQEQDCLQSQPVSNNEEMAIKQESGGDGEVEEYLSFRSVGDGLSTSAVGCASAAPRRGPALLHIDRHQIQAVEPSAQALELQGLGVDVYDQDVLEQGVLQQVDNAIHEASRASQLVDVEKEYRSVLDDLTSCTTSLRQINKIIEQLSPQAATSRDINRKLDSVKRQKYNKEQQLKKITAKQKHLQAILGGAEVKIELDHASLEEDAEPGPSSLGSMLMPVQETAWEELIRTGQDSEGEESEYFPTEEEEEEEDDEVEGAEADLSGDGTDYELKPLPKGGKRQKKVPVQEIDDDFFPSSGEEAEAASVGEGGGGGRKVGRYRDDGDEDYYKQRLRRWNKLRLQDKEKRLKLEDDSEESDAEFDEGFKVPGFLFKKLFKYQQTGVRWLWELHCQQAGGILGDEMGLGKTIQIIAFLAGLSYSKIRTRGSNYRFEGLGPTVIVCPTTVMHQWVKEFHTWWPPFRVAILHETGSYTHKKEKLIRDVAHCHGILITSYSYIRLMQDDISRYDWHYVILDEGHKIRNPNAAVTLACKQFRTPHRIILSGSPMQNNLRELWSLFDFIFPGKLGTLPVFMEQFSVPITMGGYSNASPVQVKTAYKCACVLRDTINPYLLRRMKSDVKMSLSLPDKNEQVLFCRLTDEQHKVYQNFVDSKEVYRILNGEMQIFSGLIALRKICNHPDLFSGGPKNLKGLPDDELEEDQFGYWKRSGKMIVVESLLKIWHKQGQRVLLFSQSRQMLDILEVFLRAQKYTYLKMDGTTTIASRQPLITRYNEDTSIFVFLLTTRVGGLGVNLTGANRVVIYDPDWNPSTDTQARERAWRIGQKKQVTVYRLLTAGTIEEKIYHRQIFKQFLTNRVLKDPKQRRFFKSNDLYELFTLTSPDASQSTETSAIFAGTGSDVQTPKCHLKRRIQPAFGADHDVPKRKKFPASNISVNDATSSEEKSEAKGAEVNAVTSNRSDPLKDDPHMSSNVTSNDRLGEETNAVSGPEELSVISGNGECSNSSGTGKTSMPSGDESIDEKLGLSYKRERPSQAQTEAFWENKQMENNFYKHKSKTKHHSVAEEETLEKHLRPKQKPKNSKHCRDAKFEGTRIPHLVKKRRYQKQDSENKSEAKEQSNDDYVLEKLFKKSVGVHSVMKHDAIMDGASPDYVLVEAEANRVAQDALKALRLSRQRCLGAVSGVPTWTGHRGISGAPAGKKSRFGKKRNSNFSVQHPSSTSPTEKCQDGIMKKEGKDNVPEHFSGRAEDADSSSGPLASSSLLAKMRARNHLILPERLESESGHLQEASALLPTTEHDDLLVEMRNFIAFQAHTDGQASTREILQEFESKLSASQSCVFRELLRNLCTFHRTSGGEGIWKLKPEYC

binding result: binds
B1: GST-NAP1L1 fusion protein (natural protein, human, UniProt P55209 1-391, looked up)
chain: MADIDNKEQSELDQDLDDVEEVEEEETGEETKLKARQLTVQMMQNPQILAALQERLDGLVETPTGYIESLPRVVKRRVNALKNLQVKCAQIEAKFYEEVHDLERKYAVLYQPLFDKRFEIINAIYEPTEEECEWKPDEEDEISEELKEKAKIEDEKKDEEKEDPKGIPEFWLTVFKNVDLLSDMVQEHDEPILKHLKDIKVKFSDAGQPMSFVLEFHFEPNEYFTNEVLTKTYRMRSEPDDSDPFSFDGPEIMGCTGCQIDWKKGKNVTLKTIKKKQKHKGRGTVRTVTKTVSNDSFFNFFAPPEVPESGDLDDDAEAILAADFEIGHFLRERIIPRSVLYFTGEAIEDDDDDYDEEGEEADEEGEEEGDEENDPDYDPKKDQNPAECKQQ
notes: human NAP1-like histone chaperone NAP1L1; source: bacterially expressed, immobilized on glutathione beads
